From FireProtDB (doi:10.1111/j.1432-1033.1992.tb16932.x)

Details: Escherichia coli (strain K12), CD, reversible: yes, whole UniProt chain shown
[1] = pH 3, Thermal, glycine-HCl 10 mM
[2] = pH 5.5, 25 °C, Urea, Sodium acetate 10 mM, NaCl 0.1 M

B1: Ribonuclease HI wild type, P0A7Y4 (protein)
chain: MLKQVEIFTDGSCLGNPGPGGYGAILRYRGREKTFSAGYTRTTNNRMELMAAIVALEALKEHCEVILSTDSQYVRQGITQWIHNWKKRGWKTADKKPVKNVDLWQRLDAALGQHQIKWEWVKGHAGHPENERCDELARAAAMNPTLEDTGYQVEV
Tm [1]: 49.8 °C | unfolding enthalpy (van 't Hoff) [1]: 98.1 kcal/mol | denaturant m value [2]: 1.96 kcal/mol/M | denaturant midpoint (higher = more stable) [2]: 5.01 M | unfolding free energy [2]: 9.81 kcal/mol
